According to US20240101635A1 (AKSTON BIOSCIENCES, published 2024):

Target: T1, human insulin receptor (human, UniProt P06213 28-1382)
T1 construct: whole, on cells; Endogenous receptor on IM-9 cells; also called IR
Experiment: competition with biotinylated RHI on IM-9 cells, flow cytometry, 4 C
Procedure: 40 μL of an IM-9 cell suspension (8×10⁶ cells/mL) was then added to each well by multichannel pipette, mixed again gently and incubated on ice for 30 min to allow competitive binding on the insulin receptor on IM-9 cells. Cells were then washed twice with 275 μL of ice-cold FACS wash buffer (HBSS/2 mM EDTA/0.1% Na-azide+0.5% horse serum) by centrifuging the V-bottom plate at 3000 rpm for 3 min and aspirating the supernatant. Cells were then resuspended in 40 μL of FACS staining medium containing 1:100 diluted Streptavidin-PE (Life Technologies) for 20 min on ice. Cells were then washed once with 275 μL of ice-cold FACS buffer and finally fixed with 3% paraformaldehyde for 10 min at room temp. Cells were then washed once with 275 μL of ice-cold FACS buffer and resuspended in 250 μl of FACS buffer for analysis.
The V-bottom plates containing cells were then analyzed on a Guava 8-HT flow cytometer (Millipore). Biotinylated-RHI binding to insulin receptor was quantitated by the median fluorescence intensity (MFI) of the cells on the FACS FL-2 channel for each concentration of the test compound. Control wells were labeled only with biotinylated-RHI and were used to calculate the percent (%) inhibition resulting from each test compound concentration. The % inhibition by test compounds of biotinylated-RHI binding on IM-9 cells was plotted against log concentrations of the test compound, and the resulting IC50 values were calculated using GraphPad Prism (GraphPad Software, La Jolla, CA) for the test compounds. Lower IC50 values of the test compound therefore indicate greater levels of biotinylated-RHI inhibition at lower concentrations indicating stronger binding of the insulin-Fc fusion protein to the insulin receptor. A control compound, such as unlabeled recombinant human insulin (RHI) was also used as an internal standard to generate an RHI IC50 against which a given compound IC50 could be ratioed (IC50(compound)/IC50(RHI)). Lower IC50 ratios have more similar binding to RHI (stronger binding to insulin receptor), while higher IC50 ratios have weaker binding to the insulin receptor relative to RHI.

T1 sequence (P06213 28-1382): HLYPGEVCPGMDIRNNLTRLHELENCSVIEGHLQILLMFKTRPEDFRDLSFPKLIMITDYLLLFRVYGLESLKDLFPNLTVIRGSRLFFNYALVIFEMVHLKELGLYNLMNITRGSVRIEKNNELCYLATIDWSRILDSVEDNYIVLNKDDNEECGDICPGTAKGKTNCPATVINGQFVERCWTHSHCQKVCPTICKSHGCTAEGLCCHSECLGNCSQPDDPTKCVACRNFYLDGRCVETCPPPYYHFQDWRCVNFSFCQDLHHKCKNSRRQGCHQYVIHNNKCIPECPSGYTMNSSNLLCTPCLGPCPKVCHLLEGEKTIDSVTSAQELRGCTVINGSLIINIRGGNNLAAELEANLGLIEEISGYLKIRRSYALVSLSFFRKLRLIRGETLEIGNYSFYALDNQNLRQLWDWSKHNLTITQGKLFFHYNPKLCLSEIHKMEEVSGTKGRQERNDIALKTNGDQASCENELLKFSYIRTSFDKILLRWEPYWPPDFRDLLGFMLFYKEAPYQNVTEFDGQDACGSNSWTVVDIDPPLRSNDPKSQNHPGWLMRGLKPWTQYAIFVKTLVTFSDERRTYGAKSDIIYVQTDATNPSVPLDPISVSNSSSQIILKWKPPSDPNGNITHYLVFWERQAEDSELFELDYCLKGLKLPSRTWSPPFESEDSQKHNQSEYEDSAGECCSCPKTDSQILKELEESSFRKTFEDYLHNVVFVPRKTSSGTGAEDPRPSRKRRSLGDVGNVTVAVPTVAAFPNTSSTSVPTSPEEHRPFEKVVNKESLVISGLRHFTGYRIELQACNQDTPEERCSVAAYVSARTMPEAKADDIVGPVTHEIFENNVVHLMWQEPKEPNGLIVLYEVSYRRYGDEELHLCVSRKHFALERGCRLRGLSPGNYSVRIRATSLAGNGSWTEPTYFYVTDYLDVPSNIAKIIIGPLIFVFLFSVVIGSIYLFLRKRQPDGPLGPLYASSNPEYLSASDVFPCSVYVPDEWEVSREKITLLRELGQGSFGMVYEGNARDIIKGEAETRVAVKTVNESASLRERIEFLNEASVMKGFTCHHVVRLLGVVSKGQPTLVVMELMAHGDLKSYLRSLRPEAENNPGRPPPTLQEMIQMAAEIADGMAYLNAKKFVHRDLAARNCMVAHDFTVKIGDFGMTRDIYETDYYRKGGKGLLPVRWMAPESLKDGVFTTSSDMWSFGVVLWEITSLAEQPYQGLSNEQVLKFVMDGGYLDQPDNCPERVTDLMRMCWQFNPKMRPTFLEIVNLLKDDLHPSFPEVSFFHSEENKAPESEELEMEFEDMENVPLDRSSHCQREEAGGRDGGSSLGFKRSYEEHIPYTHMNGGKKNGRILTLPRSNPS

Binder	IC50
insulin-Fc fusion protein of SEQ ID NO: 56 (Fc fusion, only 12% homodimer (aggregated)) FVNQHLCGSDLVEALALVCGERGFFYTDPTGGGPRRGIVEQCCHSICSLYQLENYCNGGGGAGGGGCISPCPVPESLGGPSVFIFPPKPKDILRITRTPEITCVVLDLGREDPEVQISWFVDGKEVHTAKTQPREQQFNSTYRVVSVLPIEHQDWLTGKEFKCRVNHIGLPSPIERTISKARGQAHQPSVYVLPPSPKELSSSDTVTLTCLIKDFFPPEIDVEWQSNGQPEPESKYHTTAPQLDEDGSYFLYSKLSVDKSRWQQGDTFTCAVMHEALQNHYTDLSLSHSPG	> 5000 nM
insulin-Fc fusion protein of SEQ ID NO: 114 (Fc fusion, homodimer) FVNQHLCGSHLVEALALVCGERGFFYTDPAGGGPRRGIVEQCCASVCSLYQLEHYCGGGGAGGGGGEGPKCPVPEIPGAPSVFIFPPKPKDTLSISRTPEVTCLVVDLGPDDSNVQITWFVDNTEMHTAKTRPREEQFNSTYRVVSVLPILHQDWLKGKEFKCKVNSKSLPSAMERTISKAKGQPHEPQVYVLPPTQEELSENKVSVTCLIKGFHPPDIAVEWEITGQPEPENNYQTTPPQLDSDGTYFLYSRLSVDRSHWQRGNTYTCSVSHEALHSHHTQKSLTQSP	3480 nM
insulin-Fc fusion protein of SEQ ID NO: 52 (Fc fusion, Homodimer; HEK293, Protein A) FVNQHLCGSDLVEALALVCGERGFFYTDPTGGGPRRGIVEQCCHSICSLYQLENYCNGGGGAGGGGDCPKCPAPEMLGGPSVFIFPPKPKDTLLIARTPEVTCVVVDLDPEDPEVQISWFVDGKQMQTAKTQPREEQFNGTYRVVSVLPIGHQDWLKGKQFTCKVNNKALPSPIERTISKARGQAHQPSVYVLPPSREELSKNTVSLTCLIKDFFPPDIDVEWQSNGQQEPESKYRTTPPQLDEDGSYFLYSKLSVDKSRWQRGDTFICAVMHEALHNHYTQESLSHSPG	28 nM
insulin-Fc fusion protein of SEQ ID NO: 118 (Fc fusion, homodimer) FVNQHLCGSHLVEALALVCGERGFFYTDPAGGGPRRGIVEQCCASVCSLYQLEHYCGGGGAGGGGDCPKCPPPEMLGGPSIFIFPPKPKDTLSISRTPEVTCLVVALGPDDSDVQITWFVDNTQVYTAKTSPREEQFSSTYRVVSVLPILHQDWLKGKEFKCKVNSKSLPSPIERTISKDKGQPHEPQVYVLPPAQEELSRNKVSVTCLIEGFYPSDIAVEWEITGQPEPENNYRTTPPQLDSDGTYFLYSRLSVDRSRWQRGNTYTCSVSHEALHSHHTQKSLTQSPG	> 5000 nM
insulin-Fc fusion protein of SEQ ID NO: 116 (Fc fusion, homodimer) FVNQHLCGSHLVEALALVCGERGFFYTDPAGGGPRRGIVEQCCASVCSLYQLEHYCGGGGAGGGGGEGPKCPVPEIPGAPSVFIFPPKPKDTLSISRTPEVTCLVVDLGPDDSNVQITWFVDNTEMHTAKTRPREEQFSSTYRVVSVLPILHQDWLKGKEFKCKVNSKSLPSAMERTISKAKGQPHEPQVYVLPPTQEELSENKVSVTCLIKGFHPPDIAVEWEITGQPEPENNYQTTPPQLDSDGTYFLYSRLSVDRSHWQRGNTYTCSVSHEALHSHHTQKSLTQSPG	707 nM

Target: T2, biotinylated recombinant human Fc(gamma) receptor I (human, UniProt P12314 16-288, biotinylated (site not stated))
T2 construct: Bought reagent, used as surrogate for canine/feline Fc(gamma)RI; also called rhFc(gamma) receptor I; Fc(gamma)RI
T2 sequence (P12314 16-288 limits assumed): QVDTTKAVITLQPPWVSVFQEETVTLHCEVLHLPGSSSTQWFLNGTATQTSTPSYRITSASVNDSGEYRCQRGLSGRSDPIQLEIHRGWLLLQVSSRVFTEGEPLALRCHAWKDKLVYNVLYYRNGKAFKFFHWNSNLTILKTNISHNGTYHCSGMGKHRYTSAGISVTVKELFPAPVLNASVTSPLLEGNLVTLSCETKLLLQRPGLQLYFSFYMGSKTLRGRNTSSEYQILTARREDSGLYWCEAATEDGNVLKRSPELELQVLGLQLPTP
Experiment: ELISA, fusion protein coated, biotinylated rhFc(gamma)RI in solution, pH 7.4
Procedure: (§1) The binding of insulin-Fc fusion proteins to the Fc(gamma) receptor I at pH 7.4 was conducted using an ELISA assay as follows. Since neither canine nor feline Fc(gamma) receptor I was not commercially available, human Fc(gamma) receptor I (i.e., rhFc(gamma) receptor I) was used as a surrogate mammalian receptor. Insulin-Fc compounds were diluted to 10 μg/mL in sodium bicarbonate buffer at pH 9.6 and coated on Maxisorp (Nunc) microtiter plates overnight at 4° C., after which the microplate strips were washed 5 times with PBST (PBS/0.05% Tween-20) buffer and blocked with Superblock blocking reagent (ThermoFisher). Serial dilutions of biotinylated rhFc(gamma) receptor I (recombinant human Fc(gamma)R-I; R&D Systems) were prepared in PBST/10% Superblock buffer from 6000 ng/mL to 8.2 ng/mL and loaded at 100 μL/well onto the microplate strips coated with insulin-Fc fusion protein. The microtiter plate was incubated for 1 hour at room temperature after which the microplate strips were washed 5 times with PBST and then loaded with 100 μL/well of streptavidin-HRP diluted 1:10000 in PBST/10% Superblock buffer. After incubating for 45 min, the microplate strips were washed again 5 times with PBST. TMB was added to reveal the bound Fc(gamma) receptor I proteins and stopped with ELISA stop reagent (Boston Bioproducts). The plate was read in an ELISA plate reader at 450 nm, and the OD values (proportional to the binding of rhFc(gamma) receptor I to insulin-Fc protein) were plotted against log concentrations of rhFc(gamma) receptor I added to each well to generate binding curves using GraphPad Prism software.
Low Fc(gamma) receptor binding is most likely to correlate with minimum immunogenicity.

Binder	OD450 nm Minus Assay Background	Ratio to SEQ ID NO: 52
insulin-Fc fusion protein of SEQ ID NO: 52 (Fc fusion, Homodimer; HEK293, Protein A) FVNQHLCGSDLVEALALVCGERGFFYTDPTGGGPRRGIVEQCCHSICSLYQLENYCNGGGGAGGGGDCPKCPAPEMLGGPSVFIFPPKPKDTLLIARTPEVTCVVVDLDPEDPEVQISWFVDGKQMQTAKTQPREEQFNGTYRVVSVLPIGHQDWLKGKQFTCKVNNKALPSPIERTISKARGQAHQPSVYVLPPSREELSKNTVSLTCLIKDFFPPDIDVEWQSNGQQEPESKYRTTPPQLDEDGSYFLYSKLSVDKSRWQRGDTFICAVMHEALHNHYTQESLSHSPG	0.323 OD450	1 ratio
insulin-Fc fusion protein of SEQ ID NO: 64 (Fc fusion, homodimer; also called cNg-K; cNg-NB139-K) FVNQHLCGSDLVEALALVCGERGFFYTDPTGGGPRRGIVEQCCHSICSLYQLENYCNGGGGAGGGGDCPKCPAPEMLGGPSVFIFPPKPKDTLLIARTPEVTCVVVDLDPEDPEVQISWFVDGKQMQTAKTQPREEQFKGTYRVVSVLPIGHQDWLKGKQFTCKVNNKALPSPIERTISKARGQAHQPSVYVLPPSREELSKNTVSLTCLIKDFFPPDIDVEWQSNGQQEPESKYRTTPPQLDEDGSYFLYSKLSVDKSRWQRGDTFICAVMHEALHNHYTQESLSHSPG		0.2 ratio

Target: T2, biotinylated recombinant human …
Experiment: ELISA, fusion protein coated, biotinylated rhFc(gamma)RI at 3000 ng/mL, pH 7.4
Procedure: as §1
Finally, select compounds were tested for their likelihood to interact with the immune system by measuring their Fc(gamma) receptor binding activity according to the procedure of Example 8. Table 19 compares the Fc(gamma) receptor I binding of these insulin-Fc fusion proteins with the Fc(gamma) receptor binding of the insulin-Fc fusion protein of SEQ ID NO: 52.

Binder	OD450 nm at a Fc(gamma)RI concentration of 3000 (ng/mL)	Ratio to SEQ ID NO: 52	OD450 nm Minus Assay Background
insulin-Fc fusion protein of SEQ ID NO: 36 (Fc fusion, homodimer; also called cNg-S and B16A) FVNQHLCGSHLVEALALVCGERGFHYGGGGGGSGGGGGIVEQCCTSTCSLDQLENYCGGGGGQGGGGQGGGGQGGGGGDCPKCPAPEMLGGPSVFIFPPKPKDTLLIARTPEVTCVVVDLDPEDPEVQISWFVDGKQMQTAKTQPREEQFSGTYRVVSVLPIGHQDWLKGKQFTCKVNNKALPSPIERTISKARGQAHQPSVYVLPPSREELSKNTVSLTCLIKDFFPPDIDVEWQSNGQQEPESKYRTTPPQLDEDGSYFLYSKLSVDKSRWQRGDTFICAVMHEALHNHYTQESLSHSPG	0.177 OD450	0.32 ratio	
insulin-Fc fusion protein of SEQ ID NO: 104 (Fc fusion, 71% homodimer; also called cNg-NB151-S) FVNQHLCGSHLVEALELVCGERGFHYGGGGGGSGGGGGIVEQCCTSTCSLDQLENYCGGGGGQGGGGQGGGGQGGGGGDCPKCPAPEMLGGPSVFIFPPKPKDTLLIARTPEVTCVVVDLDPEDPEVQISWFVDGKQMQTAKTQPREEQFSGTYRVVSVLPIGHQDWLKGKQFTCKVNNKALPSPIERTISKARGQAHQPSVYVLPPSREELSKNTVSLTCLIKDFFPPDIDVEWQSNGQQEPESKYRTTPPQLDEDGSYFLYSKLSVDKSRWQRGDTFICAVMHEALHNHYTQESLSHSPG	0.175 OD450	0.32 ratio	
insulin-Fc fusion protein of SEQ ID NO: 102 (Fc fusion, 73% homodimer; also called cNg-NB151-S, NB119-A) FVNQHLCGSHLVEALELVCGERGFHYGGGGGGSGGGGGIVEQCCTSTCSLDQLENYCGGGGGQGGGGQGGGGQGGGGGDCPKCPAPEMLGGPSVFIFPPKPKDTLLIARTPEVTCVVVALDPEDPEVQISWFVDGKQMQTAKTQPREEQFSGTYRVVSVLPIGHQDWLKGKQFTCKVNNKALPSPIERTISKARGQAHQPSVYVLPPSREELSKNTVSLTCLIKDFFPPDIDVEWQSNGQQEPESKYRTTPPQLDEDGSYFLYSKLSVDKSRWQRGDTFICAVMHEALHNHYTQESLSHSPG	0.166 OD450	0.29 ratio	
insulin-Fc fusion protein of SEQ ID NO: 52 (Fc fusion, Homodimer; HEK293, Protein A) FVNQHLCGSDLVEALALVCGERGFFYTDPTGGGPRRGIVEQCCHSICSLYQLENYCNGGGGAGGGGDCPKCPAPEMLGGPSVFIFPPKPKDTLLIARTPEVTCVVVDLDPEDPEVQISWFVDGKQMQTAKTQPREEQFNGTYRVVSVLPIGHQDWLKGKQFTCKVNNKALPSPIERTISKARGQAHQPSVYVLPPSREELSKNTVSLTCLIKDFFPPDIDVEWQSNGQQEPESKYRTTPPQLDEDGSYFLYSKLSVDKSRWQRGDTFICAVMHEALHNHYTQESLSHSPG	0.428 OD450	1 ratio	0.371 OD450
insulin-Fc fusion protein of SEQ ID NO: 96 (Fc fusion, purified on Protein A or Protein G) FVNQHLCGSHLVEALELVCGERGFHYGGGGGGSGGGGGIVEQCCTSTCSLDQLENYCGGGGGQGGGGQGGGGQGGGGGRCTDTPPCPVPEPLGGPSVLIFPPKPKDILRITRTPEVTCVVLDLGREDPEVQISWFVDGKEVHTAKTQSREQQFNGTYRVVSVLPIEHQDWLTGKEFKCRVNHIDLPSPIERTISKARGRAHKPSVYVLPPSPKELSSSDTVSITCLIKDFYPPDIDVEWQSNGQQEPERKHRMTPPQLDEDGSYFLYSKLSVDKSRWQQGDPFTCAVMHETLQNHYTDLSLSHSPG	0.253 OD450	0.53 ratio	
